Test results reported in the DeepSol protein solubility set.

assay: soluble on expression in E. coli; label from the status in PepcDB or PDB records

Row | Sequence | soluble on expression in E. coli
1 | MGSDKIHHHHHHLTNQMVYVYKDGKQVVSSQCVTGCIAKGHGTPTGVYSIFSMDKDRYLRGDGYKSWVNFFVPFNGGIGFHDASWRSTFGGNIYLYSGSHGCINMPYSEVKKLFANVSMGETVIVYGGATSVDGKEQSFTGQDAYSVTEGDASFNLGVTAQDNAKLTYVSDNEWVAKVDESGNVTPVGVGTATITVKSEATAGYRAGTKTITVTVNAKAQPQVQPQKPAQQQPQKPAQQQQPQKPAAKKDASVNVSESDVSLEINGTKKINISVSSDTGATVEVESGDASVATLDSNGNIVAKNEGQVTYKVYTKATGSYNASNVSYVTIKVSKPAEPDDSGADADRE | not soluble
2 | MAEKFKIIMTEALSLYIWGCNILNTEKLETLLGFYKQYKALSEYIDKKYKLSLNDLAVLDLTMKHCKDEKVLMQSFLKTAMDELDLSRTKLLVSIRRLIEKERLSKVRSSKDERKIYIYLNNDDISKFNALFEDVEQFLNI | not soluble
3 | MTKNEIRKYILHKMKNFNKAEKRKADTWLRNQFFATEEYKEANAIALVLSFNHEVDTFSIIEQALMDHKRIFVPKMDYLNHQMTFKEIFNLKDIDVDNKGIYYPTSKGETTNNLDLIVVPGVGFQDDGYRIGYGGGYYDRFLANYQTKTISLLYDFQITSFEPESFDQPVDKLIIYQSALEHHHHHH | soluble
4 | MNRHLIHRRDILDTLVADLQAQQPDHIAVTGDLVNIALVNEFAPARQWLESVGPADRVSLVPGNHDAYVRSTAHRFAETFPDYISGDDATPGFPYLRRREAIAIIGVSSAVPTAPLRATGWLGAPQRAALEALLQSLAGERVFKVLLIHHPLQSRSRHKRLTDAADLIALLQRHPVDLVLHGHDHVHATVRIDTPFGAIPVVGVPSASAMNDRHRPSAAYNLFKISEGNLEHHHHHH | soluble
5 | MNTEKSEKCINVAPSGIRRMKKIHQMEIAQLFEYRRNCLGEKRTAVENVINAKVVAWNLAVVRRRHYFDLHGMTPQGAVDFVAQIVEGRRPGYIKLETGRGNHSKDNIPAIQNRLLQDFGNLSGFQIAIDPSNLGVLILSFQ | not soluble
6 | MSLETETMSQDLMQRGKAIKLAVFDVDGVLTDGRLYFMEDGSEIKTFNTLDGQGIKMLIASGVTTAIISGRKTAIVERRAKSLGIEHLFQGREDKLVVLDKLLAELQLGYEQVAYLGDDLPDLPVIRRVGLGMAVANAASFVREHAHGITRARGGEGAAREFCELILSAQGNLEAAHSVYLEGHHHHHH | soluble
7 | SSAEVKVTGQNQEQFLLLAKSAKGAALATLIHQVLEAPGVYVFGELLDMPNVRELAESDFASTFRLLTVFAYGTYADYLAEARNLPPLTEAQKNKLRHLSVVTLAAKVKCIPYAVLLEALALRNVRQLEDLVIEAVYADVLRGSLDQRNQRLEVDYSIGRDIQRQDLSAIARTLQEWCVGCEVVLSGIEEQVSRANQHKEQQLGLKQQIESEVANLKKTIKVTTAAAAAATSQDPEQHLTELREPAPGTNQRQPSKKASKGKGLRGSAKIWSKSN | soluble
8 | MAEWNRAKRKRKTIEIQYTGLASNSTLKVTKVTGKHLESMGIPGKFGYEVYPEEAVYLMETGSATISTSSGRDLSLLEAFSILEAMSVPMSKYEAYKHVKRTGLVVLRPRKPTIDFERLRHVEPKIRQKFAEKSFEMLVNRHTVPEERVPNPDSFPSFENRNGQISMKMKVLHTSPALVNFLPLEMLESIQTSTILQNLKPPTPNRPPCRPPSYWPFVDHHVTNWQEFRFQAEQARQETVLRRLKKLRPPSHAELRRERITVENVDFHVFSPASFSHRLPARPLFSLICYSATGPPLKISELAELENVVFAMEEAGKVNFVAMSGASIDLNNYLC | not soluble
9 | MKSNEHDDCQVTNPSTGHLFDLSSLSGRAGFTAAYSEKGLVYMSICGENENCPPGVGACFGQTRISVGKANKRLRYVDQVLQLVYKDGSPCPSKSGLSYKSVISFVCRPEAGPTNRPMLISLDKQTCTLFFSWHTPLACEQATECSVRNGSSIVDLSPLIHRTGGYEAYDESEDDASDTNPDFYINICQPLNPMHAVPCPAGAAVCKVPIDGPPIDIGRVAGPPILNPIANEIYLNFESSTPCLADKHFNYTSLIAFHCKRGVSMGTPKLLRTSECDFVFEWETPVVCPDEVRMDGCTLTDEQLLYSFNLSSLSTSTFKVTRDSRTYSVGVCTFAVGPEQGGCKDGGVCLLSGTKGASFGRLQSMKLDYRHQDEAVVLSYVNGDRCPPETDDGVPCVFPFIFNGKSYEECIIESRAKLWCSTTADYDRDHEWGFCRHSNSYRTSSIIFKCDEDEDIGRPQVFSEVRGCDVTFEWKTKVVCPPKKLKHHHHHH | soluble
10 | SPEIMKDLSINFGKALDTCKKELDLPDSINEDFYKFWKEDYEITNRLTGCAIKCLSEKLEMVDADGKLHHGNAREFAMKHGADDAMAKQLVDLIHGCEKSIPPNDDRCMEVLSIAMCFKKEIHNLKWAPNMEVVVGEVLAEV | soluble
11 | MGSDKIHHHHHHSTPTEFKRPSLKVLFGSFVGEYPGIIAQEKGFFKAQGVDVELIHKRYIQLEQANFSAGKYDGMTSSLGNLIILSAINLDIQGVIVIDESTGADVVVAQPQIKTVADLKGKKLGANLGGFSELFITEMLKTNNLNSNDVNLVRLEALKIPQNLKKNFIQAGHTWEPYLSEAMKIGGNILFTSKQTPGLILDLMIFRGDVIRDRPGDIRAFVQGWLQASEYWKENVQEGNTIISKALKIPSNTISLEGISLTSLDENQNLFQFSNPNSIDKIAKVYADFFIRAGNLTRIPELKSLFNSSFLNPAS | not soluble
12 | MPSNCRRFEGKVAIVTAATKGIGLAIAERLLDEGASVVIGSRNQKNVDEAIEYLKNKGLTKVAGIAGHIASTDDQKKLVDFTLQKFGKINILVNNHGINPAFGHILEVSDQVWDKLFEVNVKAGFQMTKLVHPHIAKEGGGAIIFNASYSAYKSPPGIAAYGVTKTTLVGLTRALAMGLAKDNIRVNGIAPGVIKTKMSQVLWDGGEDAEKELTDIQEIALGRLGVPDDCAGTVAYLASDDSSYITGEMIIIAGGVQARL | not soluble
13 | MMQTSTSSRVRRYPYQITLSLVLKGFYSPSAPSYDFCLVLLPTLFLIDLMPIKFSLHVTIGIGEATPVPIFFFSAPWYFRSGNPLPHCVRAYRCKVNFPFFRLGWSTWLHY | soluble
14 | MAGHSKWANIKHRKAAQDAQRGKIFTKLIRELVTAAKIGGGDVSANPRLRAAVDKALSNNMTRDTINRAIDRGVGGGDDTNMETKIYEGYGPGGTAVMVECLSDNANRTISQVRPSFTKCGGNLGTEGSVGYLFSKKGLILIAEADEDALTEAAIEAGADDIQPQDDGSFEIYTAWEDLGSVRDGIEAAGFKVQEAEVTMIPSTTVDLDIETAPKLLRLIDMLEDCDDVQNVYHNGEICDEVASQL | not soluble
15 | MESTQKDIKLEPDEFNYIIAPGAPESENLAENPENPVDLSEIPLETKPAWFPSSKGRSIVWEHITWVAESQRAACNYCAAEFQVKGGTSALLRHLKTIHPAAINFDPENPPPVARRKRKKMEDYTIVTEDTKSYMDNLLEQFLNVDDSAPRGGLPDHDSPQHMLVVDPQSRADSEIDAVIRNLQQETEQNGLLEPEPDQALKKLLGIDDGRCEEVIAIAAPIQQDEEKQVSSSSGGAQTKKRRADEQKLTENPALNSGKFSLSILSAIRRPPLPSSTATSSSAAAPQIPAMTSSAVASATSAAAAATPMMPAKYNAQAVQILDFEAKVLYNQSLHSTIAREDAMTTYYRMKSRKLELEIKKLERELGEEQDEAQEHEE | not soluble
16 | MGSDKIHHHHHHVDRGCQWRGDDSLRGQRHERRGQLRLMGAAEYASQVRTLPKLGLGVGLRNEHFNHILSERPNVDWFEAISENFMDSGGRPGWVIRQIAEHYPIVLHGVSLSIGSADPLNEGYLARLKLLADDVQAKWVSDHLCWTGVLSINSHDLLPLPLNEETLGHVTSRVHHVQEVLGRPLILENPSTYASFQTSDIPEPEFLRALSDATGCGLLLDVNNVYVSCFNDGTDPLEYLEKIPFEKVIQMHLAGHTNCGEFLLDTHDQPVTRGVWELFRLAWQRTGGAATLLEWDGDVPAFEDLHAEVLKAREFMAGEVEALHLYQGAAAPGRARVSNPVDHIVSPVRGHSRLDA | not soluble
17 | MENKTVNQVIHYVYEGGGEAATDHNATVVFSQTITTDKVTGEKTYSDWTADNGDSFASVTSPVIDGYTADQLKVSEMTGITVDTEDISVTVTYTRNQGTIDVTYIDETTGKILEHHHHHH | not soluble
